In patent US20120316071A1 (published 2012) one finds ECL signal data, which are given here for five molecules.

Assay [1] deals with T1, rHuman HGF R/c-MET/Fc Chimera, CF (R&D Systems Cat#358-MT/CF) (human, UniProt P08581 25-932). Nature of the assay: ECL Multispot (MSD), antigen spotted on plate, Fab in solution; blank spot 292.
In assay [2] the target is T2, rHuman Notch-1/Fc Chimera, CF (R&D Systems Cat#3647-TK) (human).
T2 chain: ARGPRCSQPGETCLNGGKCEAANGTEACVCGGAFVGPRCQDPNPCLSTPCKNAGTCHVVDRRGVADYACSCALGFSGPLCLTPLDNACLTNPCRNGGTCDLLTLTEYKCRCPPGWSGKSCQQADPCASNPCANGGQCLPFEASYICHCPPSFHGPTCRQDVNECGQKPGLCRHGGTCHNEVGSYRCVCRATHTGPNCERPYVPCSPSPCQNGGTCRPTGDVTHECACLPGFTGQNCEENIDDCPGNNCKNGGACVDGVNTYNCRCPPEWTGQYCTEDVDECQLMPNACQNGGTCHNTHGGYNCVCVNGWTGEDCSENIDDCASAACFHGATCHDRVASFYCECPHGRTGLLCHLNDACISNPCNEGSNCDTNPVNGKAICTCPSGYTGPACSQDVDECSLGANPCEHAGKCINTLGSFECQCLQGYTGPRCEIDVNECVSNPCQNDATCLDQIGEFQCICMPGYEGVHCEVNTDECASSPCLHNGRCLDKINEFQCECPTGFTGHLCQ
Described as above.

For assay [3], the target named is T3, rHuman CD44/Fc Chimera, CF (R&D Systems Cat#3660-CD) (human, UniProt P16070 21-220). The assay is described as above.
For assay [4], the target named is T4, rHuman P-Cadherin/Fc Chimera, CF (R&D Systems Cat#861-PC) (human, UniProt P22223 108-654). Described as above.
Assay [5] concerns the target T5, rHuman Erythropoietin R/Fc Chimera, CF (R&D Systems Cat#963-ER) (human, UniProt P19235 25-250). The assay is described as above.
For assay [6], the target named is T6, rHuman HGF R/c-MET/Fc Chimera, CF (R&D Systems Cat#358-MT/CF) (human, UniProt P08581 25-932).
T6 construct: Bought recombinant protein; also called HGF R/Fc; not shown: Fc of the bought chimera
Nature of the assay: MSD ECL multispot assay, antigen spotted on plate, Fab in solution; blank spot of this row 166.

Assay [7] concerns the target T7, rHuman Notch-1/Fc Chimera, CF (R&D Systems Cat#3647-TK) (human, UniProt P46531 19-526).
T7 construct: Bought recombinant protein; not shown: Fc of the bought chimera
The description is as above.

Assay [8] addresses T8, rHuman CD44/Fc Chimera, CF (R&D Systems Cat#3660-CD) (human, UniProt P16070 21-220).
T8 construct: Bought recombinant protein; not shown: Fc of the bought chimera
The assay is described as above.

Assay [9] has as its target T9, rHuman IGF-1 sR (insulin-like growth factor-1 soluble receptor), CF (R&D Systems Cat#391-GR) (human, UniProt P08069 31-932).
T9 construct: Bought recombinant soluble receptor
The description is as above.

The target of assay [10] is T10, rHuman P-Cadherin/Fc Chimera, CF (R&D Systems Cat#861-PC) (human, UniProt P22223 108-654).
T10 construct: Bought recombinant protein; not shown: Fc of the bought chimera
The assay is described as above.

The target in assay [11] is T11, rHuman Erythropoietin R/Fc Chimera, CF (R&D Systems Cat#963-ER) (human, UniProt P19235 25-250).
T11 construct: Bought recombinant protein; also called EPO R; EPO R/Fc; not shown: Fc of the bought chimera
T11 sequence (looked up): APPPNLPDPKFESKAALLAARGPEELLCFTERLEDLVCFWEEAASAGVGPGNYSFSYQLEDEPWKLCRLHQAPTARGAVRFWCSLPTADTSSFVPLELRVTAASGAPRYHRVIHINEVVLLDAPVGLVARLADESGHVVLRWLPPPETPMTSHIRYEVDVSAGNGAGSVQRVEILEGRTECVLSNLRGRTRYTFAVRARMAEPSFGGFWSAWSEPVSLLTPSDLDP
The assay is described as above.

In assay [12] the target is T12, Recombinant Human DLL4 (R&D Systems Cat#1506-D4/CF) (human, UniProt Q9NR61 27-524).
T12 construct: Bought recombinant protein; also called delta-like protein 4; rHuman DLL4
Described as above.

The target of assay [13] is T1, rHuman HGF R/c-MET/Fc Chimera, CF (R&D …). Nature of the assay: ECL Multispot (MSD), antigen spotted on plate, Fab in solution; blank spot 169.
The target of assay [14] is T2, rHuman Notch-1/Fc Chimera, CF (R&D …). The description is as above.
For assay [15], the target named is T3, rHuman CD44/Fc Chimera, CF (R&D Systems …). Described as above.
For assay [16], the target named is T4, rHuman P-Cadherin/Fc Chimera, CF (R&D …). Described as above.
The target of assay [17] is T5, rHuman Erythropoietin R/Fc Chimera, CF …. The description is as above.
Assay [18] deals with T6, rHuman HGF R/c-MET/Fc Chimera, CF (R&D …). In words: MSD ECL multispot assay, antigen spotted on plate, Fab in solution; blank spot of this row 255.
Assay [19] deals with T7, rHuman Notch-1/Fc Chimera, CF (R&D …). Described as above.
For assay [20], the target named is T8, rHuman CD44/Fc Chimera, CF (R&D Systems …). The assay is described as above.
Assay [21] addresses T9, rHuman IGF-1 sR (insulin-like growth …). Described as above.
For assay [22], the target named is T10, rHuman P-Cadherin/Fc Chimera, CF (R&D …). The description is as above.
Assay [23] concerns the target T11, rHuman Erythropoietin R/Fc Chimera, CF …. Described as above.
Assay [24] has as its target T13, rHuman ErbB2/Fc Chimera, CF (R&D Systems Cat#1129-ER) (human, UniProt P04626 23-652).
T13 construct: Bought recombinant protein; not shown: Fc of the bought chimera
The assay is described as above.

For assay [25], the target named is T14, rHuman EGF R/Fc Chimera, CF (R&D Systems Cat#344-ER) (human, UniProt P00533 25-645).
T14 construct: Bought recombinant protein; not shown: Fc of the bought chimera
Described as above.

Assay [26] concerns the target T2, rHuman Notch-1/Fc Chimera, CF (R&D …). In words: ECL Multispot (MSD), antigen spotted on plate, Fab in solution; blank spot 241.
The target in assay [27] is T3, rHuman CD44/Fc Chimera, CF (R&D Systems …). The description is as above.
For assay [28], the target named is T4, rHuman P-Cadherin/Fc Chimera, CF (R&D …). The assay is described as above.
The target of assay [29] is T5, rHuman Erythropoietin R/Fc Chimera, CF …. Described as above.

B1: Fab VH1-46_IGHD6-6*01_IGHJ1*01 S102A/S103P/S104F/H111F (APFF) & L6_IGKJ1*01 S92P (Fab, V domains shown)
VH: QVQLVQSGAEVKKPGASVKVSCKASGYTFTSYYMHWVRQAPGQGLEWMGIINPSGGSTSYAQKFQGRVTMTRDTSTSTVYMELSSLRSEDTAVYYCAREEYAPFSAEYFQFWGQGTLVTVSS
VL: EIVLTQSPATLSLSPGERATLSCRASQSVSSYLAWYQQKPGQAPRLLIYDASNRATGIPARFSGSGSGTDFTLTISSLEPEDFAVYYCQQRPNWPPWTFGQGTKVEIKR
notes: also called APFF / S92P
On to B1, for which the ECL signal in assay [1] stood at 242; in [2], 346; in assay [3], 282; in assay [4], 354; in [5] it was 391.

B2: Fab VH1-46_IGHD6-6*01_IGHJ1*01 S102A/S103P/S104F/H111F (APFF) & L6_IGKJ1*01 S92P (Fab, V domains shown)
VH: QVQLVQSGAEVKKPGASVKVSCKASGYTFTSYYMHWVRQAPGQGLEWMGIINPSGGSTSYAQKFQGRVTMTRDTSTSTVYMELSSLRSEDTAVYYCAREEYAPFSAEYFQFWGQGTLVTVSS
VL: EIVLTQSPATLSLSPGERATLSCRASQSVSSYLAWYQQKPGQAPRLLIYDASNRATGIPARFSGSGSGTDFTLTISSLEPEDFAVYYCQQRPNWPPWTFGQGTKVEIKR
notes: Fab; also called APFF / S92P
In the case of B2, the ECL signal in assay [6] was found to be 256; in assay [7], 328; in assay [8] it was 292; in assay [9], 280; in [10] it was 307; in [11], 385. Further, the ECL signal in assay [12] was 446.

B3: Fab VH1-46_IGHD6-6*01_IGHJ1*01 S102A/S103P/S104F/H111F (APFF) & L6_IGKJ1*01 W94P (Fab, V domains shown)
VH: QVQLVQSGAEVKKPGASVKVSCKASGYTFTSYYMHWVRQAPGQGLEWMGIINPSGGSTSYAQKFQGRVTMTRDTSTSTVYMELSSLRSEDTAVYYCAREEYAPFSAEYFQFWGQGTLVTVSS
VL: EIVLTQSPATLSLSPGERATLSCRASQSVSSYLAWYQQKPGQAPRLLIYDASNRATGIPARFSGSGSGTDFTLTISSLEPEDFAVYYCQQRSNPPPWTFGQGTKVEIKR
notes: also called APFF / W94P
B3: the ECL signal in [13] came to 275; in [14], 228; in [15], 241; in assay [16], 268; in [17] it was 292.

B4: Fab VH1-46_IGHD6-6*01_IGHJ1*01 S102A/S103P/S104F/H111F (APFF) & L6_IGKJ1*01 S92Q (Fab, V domains shown)
VH: QVQLVQSGAEVKKPGASVKVSCKASGYTFTSYYMHWVRQAPGQGLEWMGIINPSGGSTSYAQKFQGRVTMTRDTSTSTVYMELSSLRSEDTAVYYCAREEYAPFSAEYFQFWGQGTLVTVSS
VL: EIVLTQSPATLSLSPGERATLSCRASQSVSSYLAWYQQKPGQAPRLLIYDASNRATGIPARFSGSGSGTDFTLTISSLEPEDFAVYYCQQRQNWPPWTFGQGTKVEIKR
notes: Fab; also called APFF / S92Q
Regarding B4, the ECL signal came to 373 in assay [18]; 351 in assay [19]; 312 in assay [20]; 246 in [21]; 340 in assay [22]; 330 in [23]. In addition, the ECL signal in [24] was found to be 282; in assay [25], 332.

B5: Fab VH1-46_IGHD6-6*01_IGHJ1*01 S102A/S103P/S104F/H111F (APFF) & L6_IGKJ1*01 W94M (Fab, V domains shown)
VH: QVQLVQSGAEVKKPGASVKVSCKASGYTFTSYYMHWVRQAPGQGLEWMGIINPSGGSTSYAQKFQGRVTMTRDTSTSTVYMELSSLRSEDTAVYYCAREEYAPFSAEYFQFWGQGTLVTVSS
VL: EIVLTQSPATLSLSPGERATLSCRASQSVSSYLAWYQQKPGQAPRLLIYDASNRATGIPARFSGSGSGTDFTLTISSLEPEDFAVYYCQQRSNMPPWTFGQGTKVEIKR
notes: also called APFF / W94M
For the molecule B5, the ECL signal in assay [26] was 321; in assay [27], 327; in assay [28], 346; in assay [29] it was 435.
